From WO2024034543A1
Each block holds one molecule with its values, some of them ahead of it.

Columns and labels:
[1] = target: actin fused with FLAG tag, expressed in XTC cells; assay: single-molecule time-lapse imaging on fixed XTC cells expressing tag-fused actin; reference 2H8 WT
[2] = target: actin fused with ALFA tag, expressed in XTC cells; assay: single-molecule time-lapse imaging on fixed XTC cells expressing ALFA tag-fused actin; reference NbALFA WT
[3] = target: actin fused with S tag, expressed in XTC cells; assay: single-molecule time-lapse imaging on fixed XTC cells expressing tag-fused actin; reference S66B WT
[4] = target: actin fused with TARGET tag, expressed in XTC cells; assay: single-molecule time-lapse imaging on fixed XTC cells expressing tag-fused actin; reference P20.1 WT
[5] = target: mCherry-Hommer1 overexpressed in CTC cells; assay: single-molecule time-lapse imaging on fixed CTC cells overexpressing mCherry-Hommer1; reference HS69 WT
[6] = target: mCherry-VGLUT1 overexpressed in CTC cells; assay: single-molecule time-lapse imaging on fixed CTC cells overexpressing mCherry-VGLUT1; reference NV-Nb9 WT
[7] = target: actin fused with HA tag, expressed in XTC cells; assay: single-molecule time-lapse imaging on fixed XTC cells expressing tag-fused actin; reference 12CA5 WT

Molecule: anti-FLAG antibody clone 2H8, mutant code H1L3 (HS28A, LY96A), Fv-EGFP (from UniProt P01631 1-113)
fold rise of the dissociation constant against WT [1]: 50 times

Molecule: anti-ALFA tag nanobody clone NbALFA, mutant code H2 (V27G, T28A, Y37A, E53A, R60A, V99A) (VHH)
fold rise of the dissociation constant against WT [2]: 1000 times

Molecule: anti-TARGET tag antibody clone P20.1, mutant code H1L0 (HY59G), Fv-EGFP (from UniProt P01724 22-129)
fold rise of the dissociation constant against WT [4]: 10 times

B3: anti-HA tag antibody clone 12CA5, mutant code H6L2 (HT28A, HY32A, LY49A), Fv-EGFP (protein)
heavy: EVKLVESGGDLVKPGGSLKLSCAASGFAFSSAGMSWVRQTPDKRLEWVATISRGGSYTYYPDSVKGRFTISRDNAKNTLYLQMSSLKSEDTAMYYCARRETYDEKGFAYWGQGTTVTVSS
light: DIELTQSPSSLTVTAGEKVTMSCKSSQSLLNSGNQKNYLTWYQQKPGQPPKLLIAWASTRESGVPDRFTGSGSGRDFTLTISSVQAEDLAVYYCQNDNSHPLTFGAGTKLELKA
fold rise of the dissociation constant against WT [7]: 100 times

More lines, now with the values ahead:

fold rise of the dissociation constant against WT [3]: 2 times
Molecule: anti-S tag antibody clone S66B, mutant code H1L0 (HS28A), Fv-EGFP (from UniProt P03976 1-113)

fold rise of the dissociation constant against WT [5]: 100 times
B1: anti-Homer nanobody clone HS69, mutant code H3 (S27G, T28A, F37A, Y59A) (VHH)
VHH: QVKLQESGGRLVQAGGSLRLSCTASGGAFSNSAMGWARQAPGKQRELVASIANEGQFTNAAASVKGRFTISRDNTKNVLFLQMNSLKPEDTAVYYCKLYSGRIGSSDVWGQGTQVTVSS

fold rise of the dissociation constant against WT [6]: 50 times
B2: anti-VGLUT nanobody clone NV-Nb9, mutant code H4 (R27G, T28A, Y32A, F37A, Y102A) (VHH)
VHH: QVQLQESGGGLVQAGDSLRLSCAASGGAWSIAGMGWARQAPGKEREFVAGITWRGGNTHYADFVKGRFTISRDNVKNTVYLQMNSLKPEDTAVYYCAANPNPSGSSVYRRNDAWGQGTQVTVSS
